According to publication PMC3972757 (Biochemistry, 2013):

Target: ubiquitin (human, UniProt P0CG47 1-76)
Assay: ITC

Kd: 81 ± 15 µM
B1: Phe320Ala mutant of the catalytic domain of AMSH (domain or fragment, human, UniProt O95630 219-424, looked up)
chain: SDCHTTVRPAKPPVVDRSLKPGALSNSESIPTIDGLRHVVVPGRLCPQFLQLASANTARGVETCGILCGKLMRNEFTITHVLIPKQSAGSDYCNTENEEELALIQDQQGLITLGWIHTHPTQTAFLSSVDLHTHCSYQMMLPESVAIVCSPKFQETGFFKLTDHGLEEISSCRQKGFHPHSKDPPLFCSCSHVTVVDRAVTITDLR
